Entries after “also recorded” stand apart in the source; their conditions may differ.
Target: T1, HIF-1α/pVHL interaction (Homo sapiens, UniProt P40337)
T1 construct: made in house; host or cells: TNT rabbit reticulocyte lysate (Promega), in vitro transcription/translation
Assay: Polypeptide blocking assay of HIF-1α and pVHL.HA IVTT mixture, anti-HA immunoprecipitation
Assay type: binding
Experimental: Further studies were performed using synthetic polypeptides as inhibitors of the HIF-1α/pVHL interaction (23). […] Results for a series of polypeptides derived from this domain are summarized in FIG. 1B and implicate a similar minimal interaction domain. […] This polypeptide comprises HIF-1α polypeptide residues 556 to 574 and its ability to block binding following exposure to a variety of direct oxidation conditions was assessed.
We synthesized a polypeptide (HIF-1α residues 556-574), containing a trans-4-hydroxy-S-proline residue at position 564 (19:Pro564Hyp), since the trans-4-hydroxylation is the commonest enzymatic proline oxidation (25). A polypeptide blocking assay was carried out using the 19:Pro564Hyp modified polypeptide and, as a control, the unmodified polypeptide without the trans-4-hydroxylation (19:WT). The 19:WT polypeptide was either incubated with cell extract before the binding assay or was untreated. The 19:Pro564Hyp polypeptide was added to a mixture of HIF-1α and pVHL-HA IVTTs at a concentration of 1, 0.25, 0.05 or 0.01 μM and the cell extract treated or untreated 19:WT polypeptide at a concentration of 0.5 μM. Interaction of HIF-1α with pVHL was then assayed by anti-HA immunoprecipitation. […] A pVHL capture assay was then carried out using biotinylated synthetic polypeptides. The same polypeptides, 19:Pro564Hyp and 19:WT were assessed for the ability to capture wild type or mutant (Pro86His) pVHL. […] In both cases capture was specific for wild type, as opposed to mutant, pVHL.
• 1. G. L. Semenza, Genes Dev 14, 1983-91. (2000). • 2. N. V. Iyer, et al., Genes Dev. 12, 149-162 (1997). • 3. E. Maltepe, J. V. Schmidt, D. Baunoch, C. A. Bradfield, M. C. Simon, Nature 386, 403-407 (1997). • 4. G. L. Wang, B.-H. Jiang, E. A. Rue, G. L. Semenza, Proc. Natl. Acad. Sci. USA 92, 5510-5514 (1995). • 5. S. Salceda, J. Caro, J. Biol. Chem. 272, 22642-22647 (1997). • 6. L. E. Huang, J. Gu, M. Schau, H. F. Bunn, Proc. Natl. Acad. Sci. USA 95, 7987-7992 (1998). • 7. M. S. Wiesener, et al., Blood 92, 2260-2268 (1998). • 8. P. H. Maxwell, et al., Nature 399, 271-275 (1999). • 9. K. Iwai, et al., Proc. Natl. Acad. Sci. USA 96, 12436-12441 (1999). • 10. J. Lisztwan, G. Imbert, C. Wirbelauer, M. Gstaiger, W. Krek, Genes Dev 13, 1822-33 (1999). • 11. M. E. Cockman, et al., J Biol Chem (2000). • 12. M. Ohh, et al., Nat Cell Biol 2, 423-7. (2000). • 13. T. Kamura, et al., Proc Natl Acad Sci USA 97, 10430-5. (2000). • 14. K. Tanimoto, Y. Makino, T. Pereira, L. Poellinger, Embo J 19, 4298-309. (2000). • 15. M. A. Goldberg, S. P. Dunning, H. F. Bunn, Science 242, 1412-1415 (1988). • 16. G. L. Wang, G. L. Semenza, Blood 82, 3610-3615 (1993). • 17. G. L. Semenza, Cell 98, 281-284 (1999). • 18. Hypoxia (<0.1% oxygen) was obtained in a workstation with O2, CO2 and temperature control (Ruskinn Technologies, Leeds, UK). For hypoxic harvest, buffers were preincubated in the chamber overnight. RCC4-VHL.HA, labelling conditions and co-immunoprecipitation assays have been described previously (11); in the current study 12.5 μM MG132 was used for proteasomal inhibition. For standard harvest, the cells were removed from the chamber after hypoxic exposure, prior to cell lysis. Co-immunoprecipitation assays on all lysates were performed at 4° C. under ambient oxygen conditions. […] When programming in hypoxia, reaction mix was preincubated in the workstation for 10 minutes before addition of the DNA template. […]

T1 sequence (P40337 whole entry): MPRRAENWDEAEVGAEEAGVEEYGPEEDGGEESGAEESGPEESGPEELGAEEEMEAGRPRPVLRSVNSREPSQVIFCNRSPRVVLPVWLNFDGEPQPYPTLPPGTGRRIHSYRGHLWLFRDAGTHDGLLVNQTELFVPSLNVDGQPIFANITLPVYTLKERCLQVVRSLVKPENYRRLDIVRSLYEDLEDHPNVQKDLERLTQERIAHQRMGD

blocking of HIF-1α/pVHL interaction by polypeptide after exposure to cell extract (cell extract supplemented with Fe(II))	Substance	blocking of HIF-1α/pVHL interaction by polypeptide not exposed to cell extract (untreated polypeptide)
	19:Pro564Hyp: polypeptide (HIF-1α residues 556-574) containing a trans-4-hydroxy-S-proline residue at position 564	highly effective at inhibiting the HIF-1α/pVHL interaction; also recorded: blocked the HIF-1α/pVHL interaction without the need for exposure to cell extract
blocking activity	19:WT: polypeptide comprising HIF-1α residues 556 to 574	

Source: US9844546B2, “Antibody against human HIF hydroxylase” (OXFORD UNIVERSITY INNOVATION LIMITED, priority 2001, dated 2017)
